Test results published in US20200384080A1 (published 2020).

What was measured:
[1] = target: T1, activin A (UniProt P08476 311-426); test: cell-based or functional assay
T1 sequence (looked up): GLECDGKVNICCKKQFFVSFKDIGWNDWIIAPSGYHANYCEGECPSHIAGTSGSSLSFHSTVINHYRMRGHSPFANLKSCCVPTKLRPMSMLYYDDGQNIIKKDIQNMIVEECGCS

[2] = target: T2, GDF11 (UniProt O95390 299-407); test: cell-based or functional assay
T2 sequence (looked up): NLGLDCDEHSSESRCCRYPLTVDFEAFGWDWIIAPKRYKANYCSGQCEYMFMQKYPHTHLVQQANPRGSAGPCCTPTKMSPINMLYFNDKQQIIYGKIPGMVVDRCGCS

[3] = target: T3, ALK4-Fc:ActRIIB-Fc heterodimer (human, UniProt P36896 24-126; Q13705 20-134); test: Biacore, receptor captured by anti-Fc
T3 construct: also called ALK4-Fc:ActRIIB-Fc heterodimeric complex; ALK4:ActRIIB heterodimer; not shown: Linkers (TGGG on ALK4, GGG on ActRIIB) and the engineered Fc pair; They differ only in Fc substitutions
T3 sequence 1: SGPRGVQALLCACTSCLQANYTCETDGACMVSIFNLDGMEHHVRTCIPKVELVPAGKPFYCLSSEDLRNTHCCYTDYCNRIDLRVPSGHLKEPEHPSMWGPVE
T3 sequence 2: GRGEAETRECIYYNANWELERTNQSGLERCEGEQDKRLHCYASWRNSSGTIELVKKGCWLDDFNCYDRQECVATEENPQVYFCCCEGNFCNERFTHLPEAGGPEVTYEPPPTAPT
Experimental: (§1) A Biacore™-based binding assay was used to compare ligand binding selectivity of the ALK4-Fc:ActRIIB-Fc heterodimeric complex described above with that of ActRIIB-Fc and ALK4-Fc homodimer complexes. The ALK4-Fc:ActRIIB-Fc heterodimer, ActRIIB-Fc homodimer, and ALK4-Fc homodimer were independently captured onto the system using an anti-Fc antibody. Ligands were injected and allowed to flow over the captured receptor protein. Results are summarized in the table below, in which ligand off-rates (kd) most indicative of effective ligand traps are denoted in bold font.

[4] = target: T2, GDF11; test: Biacore, receptor captured by anti-Fc
Experimental: as §1

[5] = target: T2, GDF11; test: Biacore, receptor captured by anti-Fc; footnote: very low signal
Experimental: as §1

B1: ActRIIB-Fc A64 20-134 (Fc fusion)
chain: GRGEAETRECIYYNANWELERTNQSGLERCEGEQDKRLHCYASWANSSGTIELVKKGCWLDDFNCYDRQECVATEENPQVYFCCCEGNFCNERFTHLPEAGGPEVTYEPPPTAPTGGGTHTCPPCPAPELLGGPSVFLFPPKPKDTLMISRTPEVTCVVVDVSHEDPEVKFNWYVDGVEVHNAKTKPREEQYNSTYRVVSVLTVLHQDWLNGKEYKCKVSNKALPVPIEKTISKAKGQPREPQVYTLPPSREEMTKNQVSLTCLVKGFYPSDIAVEWESNGQPENNYKTTPPVLDSDGSFFLYSKLTVDKSRWQQGNVFSCSVMHEALHNHYTQKSLSLSPGK
- KI, cell-based assay [1]: ~1000 nM
- KI, cell-based assay [2]: ~1000 nM

B2: ActRIIB(20-134)-hFc (Fc fusion)
chain: GRGEAETRECIYYNANWELERTNQSGLERCEGEQDKRLHCYASWRNSSGTIELVKKGCWLDDFNCYDRQECVATEENPQVYFCCCEGNFCNERFTHLPEAGGPEVTYEPPPTAPTGGGTHTCPPCPAPELLGGPSVFLFPPKPKDTLMISRTPEVTCVVVDVSHEDPEVKFNWYVDGVEVHNAKTKPREEQYNSTYRVVSVLTVLHQDWLNGKEYKCKVSNKALPVPIEKTISKAKGQPREPQVYTLPPSREEMTKNQVSLTCLVKGFYPSDIAVEWESNGQPENNYKTTPPVLDSDGSFFLYSKLTVDKSRWQQGNVFSCSVMHEALHNHYTQKSLSLSPGK
- KI, cell-based assay [1]: ~10 nM
- KI, cell-based assay [2]: ~10 nM

B3: BMP6 (ligand, UniProt P22004 375-513, looked up)
chain: SASSRRRQQSRNRSTQSQDVARVSSASDYNSSELKTACRKHELYVSFQDLGWQDWIIAPKGYAANYCDGECSFPLNAHMNATNHAIVQTLVHLMNPEYVPKPCCAPTKLNAISVLYFDDNSNVILKKYRNMVVRACGCH
- Kd [3]: 2.7 nM
- koff [3]: 0.0055 s⁻¹
- kon [3]: 2e+06 M⁻¹ s⁻¹

B4: ALK4-Fc homodimer (Fc fusion)
chain: SGPRGVQALLCACTSCLQANYTCETDGACMVSIFNLDGMEHHVRTCIPKVELVPAGKPFYCLSSEDLRNTHCCYTDYCNRIDLRVPSGHLKEPEHPSMWGPVE
notes: not shown: linker and Fc of the homodimer not specified
- kon [4]: 4.8e+06 M⁻¹ s⁻¹
- Kd [5]: 0.27 nM
